Reference: the nanobody polyreactivity screen of Harvey et al. (2022)

Assay: yeast display, Sf9 membrane polyspecificity reagent, FACS + sequencing; frameworks hold sequencing errors
Outline: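 A nanobody's polyreactivity label depends on the gate it was sorted from. Yeast display cells were stained with 10% biotinylated, detergent-solubilized Sf9 membrane reagent for 1 hour at 4 °C, enriched on streptavidin microbeads and sorted by FACS. The low and high (top ~1%) gates were set on anti-HA fluorescence for expression and streptavidin fluorescence for reagent binding.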

| Sequence | polyreactivity (PSR sort gate) |
| --- | --- |
| QVQLVESGGGLVQGGGSLGLSCAASGRIFPVNAMGWYRQAPGKERELVAAISTTGARTYYADSVKGRFTISRDNAKNTVYLQMNSLKPEDTAVYYCAAKQFSVTLSNYWGQGTQVTVSS | low polyreactivity |
| QVQLVDSGGGLVQAGGSLRISCAASGSIFPPYAMGWSRQAPGKERELVAAITYSGVRTYYADSVKGRFTISRDNAKNTVYLQMNSLKPEDTAVYYCAAVYRRGIGYPFGYWGQGTQVSVSS | high polyreactivity |
| QVQLVESGGGLDQAGGSLRLSCAASGFIFNKYALGRSRQAPGTEREFVATIRRDGSTNYADSVKGRFTISRDNAKNTVYLQMNSLKPEDTAVYSCAKRPWYHADWWDDHWGQGTQVTVSS | high polyreactivity |
| QVQLVESGGALVQAGGSLRLSCAASGFTFRSYVMGWYRQAPGKERELVAAISGSGASTYYADSVKGRFTLSRDNAKNTVYLQMNSLKPEDTAVYYCAATSPYKYWYRYNYWGHGTQVTVSS | high polyreactivity |
| QVQLVESGGGLVQAGGSLRLSCAASGSTFDRNAMGWYRQAPGKERELVAAINWRGGSTYYADSVKGRFTISRDNAKNTVYLQMNSLKPEDTAVYYCAKRQYSSDGRGFGYWGQVTQVTVSS | high polyreactivity |
| QVQLVESGGGLVQAGGSLRLSCAASGRIFRGNAMGWYRQAPGKEREMVAAISRRSGSTYYADSVKGRFTISRDNAKNTVYLQMNSLKPEDTAVYYCAATSSLGDFRYDYWGQVTQVTVSS | high polyreactivity |
| QVQLVESGGGLVQAGGSLRISCAASGFIFVTYAMGWYRQAPGKERELVAAITNSGGTTYYADSVKGRFTISRDNAKNTVYLQMNSLKPEDTAVYYCNKPYGAETAHREFDYWGQGTQVTVSS | low polyreactivity |
| QVQLVESGGGLVQAGGSLRLSCAASGNTFPLNAMGWYRQAPGKERELVAAISSSGRTYYADSVKGRFTISRDNAKNTVYLQMNSLKPEDTAVFYCNAKWRERGVRMDYWGQGTQVTVSS | high polyreactivity |
| QVQLVESGGGLVQAGGSLRLSCAASGLTFSYYAMGWYRQAPGKERELVAVISYSGSSTYYADSVKGRFTISRDNAKNTVYLQMNSLKPEDTAVYYCAAYLYPRGKGAYDFYYWGQGTQVTVSA | high polyreactivity |
| QVQLVESGGGLVQAGGSLRLSCAASGITFFLYTMGWYRQAPGKERELVAAITWRGTSTYYADSVKGRFTISRDNAKNTVYLQMNSLKPEDTGVYYCAARSRRGGYPRYYYWGQGTQVTVSS | high polyreactivity |
| QVQLVESGGGLVQAGGSLRLSCAASGSTWWYDMGWSRQAPGKERELVASISSGDSTNYADSVKGRFTISRDNAKNTVYLQMNSLKPEDTAVYYCAADKNSRPAGKGSTGYGYDYWGQGTQVNVSS | low polyreactivity |
| QVQLVESGGGLVQAGGSLRLSCAASGRIFRYNAMGWYRQAPGKETELVAVFSGSGGSTYYADSVKGRFTISRDNAKHTVYVQMNSLKPEDTAVYYCAAQFHVSWYNYWGQGTQVTVSS | low polyreactivity |
| QVQLVESGGGLFQAGGSLRLSCAASGNTFRRNTMGWYRQAPPKERELVATISWRGGKTFYADSVKGRFTISRDNAKNTVYLQMNSLKPEDTAVYYCAADTRTQTYIYGYWGQGTQVTVSS | high polyreactivity |
| QVQLVESGGGLVQAGGSLRLSCAASGYIFDRYAMGWYRQAPGKERELVAAISGRGGSTYYADSVKGRFTISRDNAKNTVYLQKNSLKPEDTAFYYCARDVYVRNGQRARYDSWGQGTQVTVSS | high polyreactivity |
| QVQLVESGGGLVQEGGSLRLSCAASGNIFRINGMGWYRQAPGKERELVATITGNGGSTYYAASVKGRFTISRDNAQNTVYLQMNSLKPEDTAVFYCAAQTTVYIYDYWGQGTQVTVSS | low polyreactivity |
| QVQLVESGGGLVQAGGSLRLSCAASGITFRRYAMGWYRQAPGKERELVASITSNGGSTYYADSVKGRFTISRDTAKNTVYLQMNSLKPEDTAVYYFAADFAVGQWLTQTSVEYDYWGQGTQLTVSS | high polyreactivity |
| QVQLVESGGGLVQAGGSLRLSCAASGSTFVVNAMGWYRQAPGKERELVAAIDDGAGDTYYADSVKGRFTISRDNAENTVYLQMNSLKPEDTAVYYCAADTWYQMDYWGQGTQVTVSS | low polyreactivity |
| QVQLVESGGGLVQAGGSLRLSCAASGFTFSYYDMGWYRQAPGKERELVAAISSSASRTYYADSVKGRFTISRDNAKNTVYLQMNSLKPEDTAVYYCAARYSESRTGHLDYWGQGTQVTVSS | high polyreactivity |
| QVQLVESGGGIVQAGGSLRLSCAASGRIFYINAMGWYRQSPGKERELVAAITGSGGRTYYADSVKGRFTISRDNAKNTVYLHINSLKPEDTAVYYCAAQKKHYSYSYWYDSLGQGTQVTVSS | high polyreactivity |
| QVQLVESGGGLVQAGASLRLSCAASGSISKSYAMGWYRQAPGKERELVAAISWRGGSTYADSVKGRFTISRDNAKNTVYLQMNSLKPEDTAVYYCAATNYGTFWGGQSERYDYWGQGTQLTVSS | low polyreactivity |
| QVQLVESGGGLVQAGGSLRLSCAASGFTFSYYGMGWNIQAPRKERELVPALTRSGTNTYYADSVKGRFTISRDNAKNTVYLQMKSLKPEDTAVFYCNADVAWSGYHDWYWSSEDYWGQGTQVTVSS | low polyreactivity |
| QVQLVESGGGLVQAGGSLRLSCAASGSTFVYYAMGGYRQAPGKERELDAAITSSGVRTYYADSVKGRFTISRDNAKNTVYLQMNSLKPEVTAVYYCAKRSTRLYSFTYQGYGYWGQGTQVTVSS | high polyreactivity |

| Sequence | polyreactivity (PSR sort gate) |
| --- | --- |
| QVQLVESGGGLVQAGGSLRLSCAASGSILFTNAMGWYRQAPGKERELVAAISSGGSTYYADSVKGRFTISRDNAKNTVYLQMNSLKPEDTAVYYCAADQLNVGREYVEYDFWGQGTQVTVSS | low polyreactivity |
| QVQLVESGGGLVQAGGSLRLSCAASGRIFNQYAMGWYIQAPGKERELVAAISRRGGSTYYADSVKGRFTISRDNAKNTVYLQMNSLKPEDTAVYYCAAVGGYASYFHLYYYWGQGTQVTVSS | high polyreactivity |
| QVQLVESGGGLVQAGGSLRLSCAASGSTFYGYVMGWYRQAPGKERDFVAGITRGGSTNYADSVKGRFTISRDNAKNTVYLQMNSLKPEDTAVYYCATRYFSRYYYWGQGTQVTVSS | high polyreactivity |
| QVQLVESGGGLVQAGGSLRLSCAASGSIFGVYAMGWYRQAPGKERGLVARISGSSGSTRYADSVKGRFTISRDNAKNTVYLQMNSLKPEDTAVYYCAARAIFRQGDRIYDSWGQGTQVTVSS | high polyreactivity |
| QVQLVESGGGLVQAGGSLRLSCAASGRTFFRYAMGWYRQAPGKERELVAAITRGGSTNYADSVKGRFTISRDNAKNTVYLQMNSLKPEDTAVYYCAKTTFSYRGHYYWGQGTQVTVSS | high polyreactivity |
| QVQLVESGGGLVQAGGSLRLSCAASGRTIHFNTMGWYRQAPGKERELVAAIRWGGNTYYADSVKGRFTISRDNAKNTVYLQKNSLKPEDTAVYYCAADRWYYFLMYYWGQGTQVTVSS | low polyreactivity |
| QVQLVESGGGLVQAGGSVRLSCAASGGTFKANAMGWYRQAPGKERELVAAISWSGGSTYYADSVKGRFTISRDNAKNSVYLQMNSLKPEDTAVYYCRYWKYRSYDYWGQGTQVTVSS | high polyreactivity |
| QVQLVESGRGLVQAGVSLRLSCAASGRTFVLYTMGWYRQAPGKERELVAAITKSGGSTYYADSVKGRFTISRDNAKNTVYLQMNSLKPEDTAVYYCAAARRYYTYYREDYYYWGQGTLVTVSS | high polyreactivity |
| QVQLVESGGGLVQAGGSLRLSCAASGSTFPAYTMGWYRQAPGKERELVAAINVSSGGSTYYADSVKGRFTISRDNAKNTVYLQRNSLKPEDTAVYYCATHGYVAHPYYYPYYYWGQGTQVTVSS | low polyreactivity |
| QVQLVESGGGLVQAGGSLRLSCAASGFILVFYAMGWYRQAPGKERELVAAIDWSGTITYYADSVKGRFTISRDNAKKTVYLQINSLKPEDTAVYYCAADGEPFYDFDYWGQRTQVTVSS | high polyreactivity |
| QVQLVESGGGLVQAGGRLRLSCAASGSTLNRNAMGWYRQAPGKERELVAAIRVSGGSTYYSDSVKGRFTISRDNAKNTVYLQMNSLNPEDTAVYYCGTRYVRARWYGYWGEGTQVTVSS | high polyreactivity |
| QVQLVESGGGLVHAGGSLRLSCASTGFIYQPYAMGWYRQAPGKEMELVAAITSRGGRTYYADSVKGRFTISRDIANNTVYLQMNRLNPVDTAVYYCNADIYASEYYYWGQGTQVTVSS | low polyreactivity |
| QVQLVESGRGLVQAGGSLRLSCAASGRTFRFNAMGWYRQAPGKEREFVAAITSGGGTYYADSVKGRFTISRDNAKNTVYLQMNSLKPEDTAVYYCAAPRQYYLMDYGGQGTQVTVSS | low polyreactivity |
| LVQLQESGGGLVQAGGSLRLSCAASGTISPGGYMGWYRQAPGKERELVASMNVGGSTNYADSVKGRFTISRDNAIITVYLQMNSLKPEDNAVYYCAVWGRNRLQLSYWGQGTQVTVSS | low polyreactivity |
| QVQLEESGGGLVQAGGSLRLSCAASGSTYWLYPMGGYRQATGKERELVATISERGGSTYYADSVKGRFTISRDNAKNTVYLQMNSLKPEDTAVYYCAAHVYGSWPDYDYWGQGTQVSVSS | low polyreactivity |
| QGQHVDSGGVLVQAGGSLRLSCAASGITVYLYAMGWYRPAPGKEREMVATISRSGGSTYADSVKGRFTISRDNAKNTVYLQMYSLKPEDSAVYYCNADVLSTGYIAYDYWGQGTQVTVSS | low polyreactivity |
| QVQLVESGGGLVQAGGSLRLICAASGFILNSYAMGWYRQAPGKERELVAAITRSGGNTFYADSVKGRFKISRDNAKNTVYLQLNSLKPDDTAVYYCNAYFTYWSQLYYWGQGTQVTVSS | high polyreactivity |
| QVQLVESGGGLVQAGGSLRLSSAASGFTFVINDMGWYRPAPGKERELVADITSGGDTYYADSVKGRFTISRDNAKNTVYLQMNSLKPEDTAVYYCAADIYPDWIYLLYGYWGQGTQVTVSS | low polyreactivity |
| QVQLVESGGGLVQAGGSLRLSCAASGNIFAYNAMGWYRQAPGKERELVASIRYSGGSTYYADSVKGRFTISRDNAKNTVYLQMNSLKPEDTAVYYCAKRGYSSYRTYNYWGQGTQVTVSS | high polyreactivity |
| QVHLVESGGGLVQAGGSLRLSCASYGRTFGIYAMGWYRQAPGKERELVATISWRGGSTYYADSVKGRFTISRDNAKNTVYLQMNSLKPEDTAVYYCAAETWYSGYTYDYWGQGTQVTVSS | low polyreactivity |
| QVQLVESGGGLVQAGGSLRLSCAASGRTFQYNAMGWYRQAPGKERELVAAISSSGGSTYYADSVKGRFTISRDNAKNTVYLQMNSLKPEDTAVYYCNAYSQSWNFYGDGDYWGQGTQVTVSS | low polyreactivity |
